Measured values taken from US20150087577A1 (POLYPHOR, published 2015).
Each block holds one binder with its values, some of them ahead of it. *1 amine or outer side, *2 acyl side, *3 side chain or, on linkers, in order; H or OH if unused. Bridges are numbered along the chain shown (N, C = ends). Primed or numbered codes have the meaning given here. [ ]: non-standard residue; d: D form. A8″‑42 = template L-Pro residue whose 4-amino group is acylated with CH3-(OCH2CH2)2-OCH2-CO (2-[2-(2-methoxyethoxy)ethoxy]acetyl), per the notes; IsOrn = L-(N',N'-diisobutyl)-ornithine, CC(C)CN(CCC[C@H](N[*:1])C(=O)[*:2])CC(C)C; Phe(4-F) = N[C@@H](Cc1ccc(F)cc1)C(=O)O; 2Nal = N[C@@H](Cc1ccc2ccccc2c1)C(=O)O; 4Pal = N[C@@H](Cc1ccncc1)C(=O)O; Cit = NC(=O)NCCC[C@H](N)C(=O)O; Orn = NCCC[C@H](N)C(=O)O

Target: human CXCR4 (human, UniProt P61073 1-352)
Assay: cell-based or functional assay

human CXCR4, sequence (P61073 whole entry): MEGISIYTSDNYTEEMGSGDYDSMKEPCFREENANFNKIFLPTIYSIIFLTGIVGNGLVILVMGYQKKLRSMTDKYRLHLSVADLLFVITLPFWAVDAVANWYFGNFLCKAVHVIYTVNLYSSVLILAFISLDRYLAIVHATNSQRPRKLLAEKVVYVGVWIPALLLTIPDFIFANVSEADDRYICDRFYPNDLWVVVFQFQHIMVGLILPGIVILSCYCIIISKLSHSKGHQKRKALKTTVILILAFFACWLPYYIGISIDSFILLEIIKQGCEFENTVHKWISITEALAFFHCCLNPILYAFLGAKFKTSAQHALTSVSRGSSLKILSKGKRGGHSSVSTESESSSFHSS

B2: Example 115 (peptide)
peptide: cyclo(YR[Cit]CRG[dP]RR[2Nal]CYQK[dP]P)
modifications: disulfide 4-11
SMILES: N=C(N)NCCC[C@@H]1NC(=O)[C@@H]2CSSC[C@H](NC(=O)[C@H](Cc3ccc4ccccc4c3)NC(=O)[C@H](CCCNC(=N)N)NC(=O)[C@H](CCCNC(=N)N)NC(=O)[C@H]3CCCN3C(=O)CNC1=O)C(=O)N[C@@H](Cc1ccc(O)cc1)C(=O)N[C@@H](CCC(N)=O)C(=O)N[C@@H](CCCCN)C(=O)N1CCC[C@@H]1C(=O)N1CCC[C@H]1C(=O)N[C@@H](Cc1ccc(O)cc1)C(=O)N[C@@H](CCCNC(=N)N)C(=O)N[C@@H](CCCNC(N)=O)C(=O)N2
IC50 (nM) Ca2+ assay (method 2): 2.7 nM

B4: Example 120 (peptide)
peptide: cyclo(YHTCRG[dP]RHWCYQK[dP]P)
modifications: disulfide 4-11
SMILES: C[C@@H](O)[C@@H]1NC(=O)[C@H](Cc2c[nH]cn2)NC(=O)[C@H](Cc2ccc(O)cc2)NC(=O)[C@@H]2CCCN2C(=O)[C@H]2CCCN2C(=O)[C@H](CCCCN)NC(=O)[C@H](CCC(N)=O)NC(=O)[C@H](Cc2ccc(O)cc2)NC(=O)[C@@H]2CSSC[C@H](NC1=O)C(=O)N[C@@H](CCCNC(=N)N)C(=O)NCC(=O)N1CCC[C@@H]1C(=O)N[C@@H](CCCNC(=N)N)C(=O)N[C@@H](Cc1c[nH]cn1)C(=O)N[C@@H](Cc1c[nH]c3ccccc13)C(=O)N2
IC50 (nM) Ca2+ assay (method 2): 8.1 nM

B7: Example 124 (peptide)
peptide: cyclo(YR[Cit]CRG[dP][IsOrn]R[2Nal]CY[Cit]K[dP]P)
modifications: disulfide 4-11
SMILES: CC(C)CN(CCC[C@@H]1NC(=O)[C@H]2CCCN2C(=O)CNC(=O)[C@H](CCCNC(=N)N)NC(=O)[C@@H]2CSSC[C@H](NC(=O)[C@H](Cc3ccc4ccccc4c3)NC(=O)[C@H](CCCNC(=N)N)NC1=O)C(=O)N[C@@H](Cc1ccc(O)cc1)C(=O)N[C@@H](CCCNC(N)=O)C(=O)N[C@@H](CCCCN)C(=O)N1CCC[C@@H]1C(=O)N1CCC[C@H]1C(=O)N[C@@H](Cc1ccc(O)cc1)C(=O)N[C@@H](CCCNC(=N)N)C(=O)N[C@@H](CCCNC(N)=O)C(=O)N2)CC(C)C
IC50 (nM) Ca2+ assay (method 2): 5.9 nM

B8: Example 117 (peptide)
peptide: cyclo(YR[Cit]CRG[dP]R[Orn]WCY[Cit]K[dP]P)
modifications: disulfide 4-11
SMILES: N=C(N)NCCC[C@@H]1NC(=O)[C@@H]2CSSC[C@H](NC(=O)[C@H](Cc3c[nH]c4ccccc34)NC(=O)[C@H](CCCN)NC(=O)[C@H](CCCNC(=N)N)NC(=O)[C@H]3CCCN3C(=O)CNC1=O)C(=O)N[C@@H](Cc1ccc(O)cc1)C(=O)N[C@@H](CCCNC(N)=O)C(=O)N[C@@H](CCCCN)C(=O)N1CCC[C@@H]1C(=O)N1CCC[C@H]1C(=O)N[C@@H](Cc1ccc(O)cc1)C(=O)N[C@@H](CCCNC(=N)N)C(=O)N[C@@H](CCCNC(N)=O)C(=O)N2
IC50 (nM) Ca2+ assay (method 2): 3.4 nM

B10: Example 123 (peptide)
peptide: cyclo(YR[Cit]CRG[dP]RRWCY[Cit]K[dP]P)
modifications: disulfide 4-11
SMILES: N=C(N)NCCC[C@@H]1NC(=O)[C@@H]2CSSC[C@H](NC(=O)[C@H](Cc3c[nH]c4ccccc34)NC(=O)[C@H](CCCNC(=N)N)NC(=O)[C@H](CCCNC(=N)N)NC(=O)[C@H]3CCCN3C(=O)CNC1=O)C(=O)N[C@@H](Cc1ccc(O)cc1)C(=O)N[C@@H](CCCNC(N)=O)C(=O)N[C@@H](CCCCN)C(=O)N1CCC[C@@H]1C(=O)N1CCC[C@H]1C(=O)N[C@@H](Cc1ccc(O)cc1)C(=O)N[C@@H](CCCNC(=N)N)C(=O)N[C@@H](CCCNC(N)=O)C(=O)N2
IC50 (nM) Ca2+ assay (method 2): 10 nM

The next lines start with the values.

IC50 (nM) Ca2+ assay (method 2): 14.5 nM
Binder: cyclo(YR[Cit]CRG[dP]RRWCY[Cit]K[dP][A8″‑42]) (disulfide 4-11) [Example 116]

IC50 (nM) Ca2+ assay (method 2): 9.4 nM
B1: Example 119 (peptide)
peptide: cyclo(Y[4Pal]TCRG[dP]RRWCYQK[dP]P)
modifications: disulfide 4-11
SMILES: C[C@@H](O)[C@@H]1NC(=O)[C@H](Cc2ccncc2)NC(=O)[C@H](Cc2ccc(O)cc2)NC(=O)[C@@H]2CCCN2C(=O)[C@H]2CCCN2C(=O)[C@H](CCCCN)NC(=O)[C@H](CCC(N)=O)NC(=O)[C@H](Cc2ccc(O)cc2)NC(=O)[C@@H]2CSSC[C@H](NC1=O)C(=O)N[C@@H](CCCNC(=N)N)C(=O)NCC(=O)N1CCC[C@@H]1C(=O)N[C@@H](CCCNC(=N)N)C(=O)N[C@@H](CCCNC(=N)N)C(=O)N[C@@H](Cc1c[nH]c3ccccc13)C(=O)N2

IC50 (nM) Ca2+ assay (method 2): 7.6 nM
B3: Example 118 (peptide)
peptide: cyclo(YRTCRG[dP][4Pal]RWCYQK[dP]P)
modifications: disulfide 4-11
SMILES: C[C@@H](O)[C@@H]1NC(=O)[C@H](CCCNC(=N)N)NC(=O)[C@H](Cc2ccc(O)cc2)NC(=O)[C@@H]2CCCN2C(=O)[C@H]2CCCN2C(=O)[C@H](CCCCN)NC(=O)[C@H](CCC(N)=O)NC(=O)[C@H](Cc2ccc(O)cc2)NC(=O)[C@@H]2CSSC[C@H](NC1=O)C(=O)N[C@@H](CCCNC(=N)N)C(=O)NCC(=O)N1CCC[C@@H]1C(=O)N[C@@H](Cc1ccncc1)C(=O)N[C@@H](CCCNC(=N)N)C(=O)N[C@@H](Cc1c[nH]c3ccccc13)C(=O)N2

IC50 (nM) Ca2+ assay (method 2): 8.8 nM
B5: Example 122 (peptide)
peptide: cyclo(YR[Cit]CRG[dP][Phe(4-F)]RWCY[Cit]K[dP]P)
modifications: disulfide 4-11
SMILES: N=C(N)NCCC[C@@H]1NC(=O)[C@@H]2CSSC[C@H](NC(=O)[C@H](Cc3c[nH]c4ccccc34)NC(=O)[C@H](CCCNC(=N)N)NC(=O)[C@H](Cc3ccc(F)cc3)NC(=O)[C@H]3CCCN3C(=O)CNC1=O)C(=O)N[C@@H](Cc1ccc(O)cc1)C(=O)N[C@@H](CCCNC(N)=O)C(=O)N[C@@H](CCCCN)C(=O)N1CCC[C@@H]1C(=O)N1CCC[C@H]1C(=O)N[C@@H](Cc1ccc(O)cc1)C(=O)N[C@@H](CCCNC(=N)N)C(=O)N[C@@H](CCCNC(N)=O)C(=O)N2

IC50 (nM) Ca2+ assay (method 2): 6.5 nM
B6: Example 121 (peptide)
peptide: cyclo(YR[Cit]CRG[dP]RRWCY[Cit]Q[dP]P)
modifications: disulfide 4-11
SMILES: N=C(N)NCCC[C@@H]1NC(=O)[C@@H]2CSSC[C@H](NC(=O)[C@H](Cc3c[nH]c4ccccc34)NC(=O)[C@H](CCCNC(=N)N)NC(=O)[C@H](CCCNC(=N)N)NC(=O)[C@H]3CCCN3C(=O)CNC1=O)C(=O)N[C@@H](Cc1ccc(O)cc1)C(=O)N[C@@H](CCCNC(N)=O)C(=O)N[C@@H](CCC(N)=O)C(=O)N1CCC[C@@H]1C(=O)N1CCC[C@H]1C(=O)N[C@@H](Cc1ccc(O)cc1)C(=O)N[C@@H](CCCNC(=N)N)C(=O)N[C@@H](CCCNC(N)=O)C(=O)N2

IC50 (nM) Ca2+ assay (method 1): 1550 nM
B9: Example 23 (peptide)
peptide: cyclo(YR[Cit]FRF[dP]RR[2Nal]VY[Cit]K[dP]P)
SMILES: CC(C)[C@@H]1NC(=O)[C@H](Cc2ccc3ccccc3c2)NC(=O)[C@H](CCCNC(=N)N)NC(=O)[C@H](CCCNC(=N)N)NC(=O)[C@H]2CCCN2C(=O)[C@H](Cc2ccccc2)NC(=O)[C@H](CCCNC(=N)N)NC(=O)[C@H](Cc2ccccc2)NC(=O)[C@H](CCCNC(N)=O)NC(=O)[C@H](CCCNC(=N)N)NC(=O)[C@H](Cc2ccc(O)cc2)NC(=O)[C@@H]2CCCN2C(=O)[C@H]2CCCN2C(=O)[C@H](CCCCN)NC(=O)[C@H](CCCNC(N)=O)NC(=O)[C@H](Cc2ccc(O)cc2)NC1=O
